The results in this text go back to article PMC9319256, “Human Enzyme PADI4 Binds to the Nuclear Carrier Importin α3” (Cells, 2022).

The target in test [1] is ΔImpα3, truncated importin α3 lacking the importin β-binding (IBB) domain (human). Kind of test: BLI; BLItz; His-tagged Impα3 or ΔImpα3 immobilised on His-tag biosensors at 0.3 µM; peptides 1-7 µM; manufacturer's buffer; 25 °C; pseudo-first-order plots; apparent. Background: In BLI a coated tip is dipped into the sample, and binding shifts an interference pattern.
The target of test [2] is human importin α3 (Impα3), intact (human). The test is described as above.
The target is the same in test [3]. Kind of test: ITC; PADI4 or peptide (100 µM) in the syringe titrated into importin (10 µM) in the cell; 20 mM Tris pH 7.5, 5 mM TCEP, 150 mM NaCl, 5% glycerol; 25 °C; single-site model. In general terms: In ITC the heat of successive injections is recorded.
Test [4] has as its target ΔImpα3, truncated importin α3 lacking the importin β-binding (IBB) domain (human). Described as above.
The target in test [5] is human importin α3 (Impα3), intact (human). The description is as above. This is another data set of the same source.
The target of test [6] is NLS1-PADI4 peptide (human). Kind of test: translational diffusion NMR (DOSY); 100 µM peptide; 100 mM sodium phosphate, pH 7.0; 10 °C; dioxane as reference.
For test [7], the target named is PADI4 (peptidyl-arginine deiminase 4), intact (human) (UniProt Q9UM07). Kind of test: other fluorescence titration; importin species 0-25 µM added to 3 µM PADI4; 20 mM Tris pH 7.5, 5 mM TCEP, 150 mM NaCl, 5% glycerol; 25 °C; fluorescence at 330 nm.
Chain of PADI4 (peptidyl-arginine deiminase 4), intact (human) (Q9UM07 whole entry): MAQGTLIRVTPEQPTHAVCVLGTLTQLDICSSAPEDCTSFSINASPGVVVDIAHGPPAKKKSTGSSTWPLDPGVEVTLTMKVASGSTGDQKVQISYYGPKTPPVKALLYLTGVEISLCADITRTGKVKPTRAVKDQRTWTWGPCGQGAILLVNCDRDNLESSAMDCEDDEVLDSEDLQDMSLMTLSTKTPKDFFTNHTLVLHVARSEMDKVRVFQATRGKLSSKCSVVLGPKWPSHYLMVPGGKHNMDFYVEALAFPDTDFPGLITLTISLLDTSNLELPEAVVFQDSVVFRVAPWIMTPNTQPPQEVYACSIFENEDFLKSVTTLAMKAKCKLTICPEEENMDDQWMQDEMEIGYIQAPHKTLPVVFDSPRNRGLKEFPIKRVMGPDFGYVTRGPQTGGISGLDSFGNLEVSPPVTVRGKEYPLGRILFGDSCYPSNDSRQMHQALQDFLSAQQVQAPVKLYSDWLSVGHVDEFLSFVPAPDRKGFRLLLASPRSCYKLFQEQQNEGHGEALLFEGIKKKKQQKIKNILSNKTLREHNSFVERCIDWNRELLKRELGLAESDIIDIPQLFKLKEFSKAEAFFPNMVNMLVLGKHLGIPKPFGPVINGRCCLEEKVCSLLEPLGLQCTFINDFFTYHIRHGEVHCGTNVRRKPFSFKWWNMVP

Chain of PADI4 (peptidyl-arginine deiminase 4), intact (Q9UM07 whole entry): as above

The term koff denotes the rate constant with which the complex falls apart. What is called kon is a measure of how fast the partners come together. What is called stoichiometry N is a count of units in the complex or per binding partner. On to NLS1-PADI4 peptide, for which the Kd in test [1] was 4 µM; in test [2] it was 18 µM; in test [3], 4.4 µM; in test [4], 1.5 µM; in test [5], 4.3 µM. Also, the koff in test [1] was 0.046 s⁻¹; in test [2], 0.0685 s⁻¹. For the same substance, the results for the kon in test [1] and in test [2] were 11000 M⁻¹ s⁻¹ and 3700 M⁻¹ s⁻¹, respectively. For the same substance, the Ka was 650000 M⁻¹ in test [4] and 230000 M⁻¹ in test [5]. Moreover, the results for the dH in test [4] and in test [5] were -8.7 kcal/mol and -21.3 kcal/mol, respectively. Also, the stoichiometry N in test [4] worked out at 1.22; in test [5] it was 1.24; in test [6] it was 6.
In test [7], “human importin α3 (Impα3), intact (natural protein)” gave a Kd of 3.9 µM.
Still for that read-out and setting: the figure for “ΔImpα3, truncated importin α3 lacking the importin β-binding (IBB) domain (domain or fragment)” is 6 µM.
With “PADI4 (peptidyl-arginine deiminase 4), intact (from UniProt Q9UM07 1-663) (enzyme)”, in test [4], the Ka came out at 780000 M⁻¹, the Kd amounted to 1.3 µM, the dH is -38.4 kcal/mol and the stoichiometry N came out at 0.84. Also, in test [5], the Ka is 210000 M⁻¹, the Kd came out at 4.8 µM, the dH is -65.5 kcal/mol and the stoichiometry N worked out at 0.97.
